US20040228866A1 (LUDWIG INSTITUTE FOR CANCER RESEARCH, published 2004)

T1: p63γ (UniProt Q9H3D4-5 40-487, limits assumed)
T1 sequence (looked up): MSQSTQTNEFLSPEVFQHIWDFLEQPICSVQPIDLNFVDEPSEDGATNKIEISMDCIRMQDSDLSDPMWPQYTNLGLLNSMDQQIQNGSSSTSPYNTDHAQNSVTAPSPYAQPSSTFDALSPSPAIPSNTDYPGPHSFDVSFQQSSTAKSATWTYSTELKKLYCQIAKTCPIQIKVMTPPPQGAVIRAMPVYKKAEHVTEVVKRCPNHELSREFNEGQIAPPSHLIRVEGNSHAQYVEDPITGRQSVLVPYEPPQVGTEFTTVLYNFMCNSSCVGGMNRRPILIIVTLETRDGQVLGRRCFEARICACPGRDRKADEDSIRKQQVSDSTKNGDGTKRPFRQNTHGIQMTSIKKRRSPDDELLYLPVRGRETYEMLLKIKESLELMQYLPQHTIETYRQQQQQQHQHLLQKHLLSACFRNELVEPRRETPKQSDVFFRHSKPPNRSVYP


Tests used:
[1] = target: p53 (wild type) (human, UniProt P04637 1-393); assay: cell-based or functional assay
Chain of p53 (wild type) (P04637 whole entry): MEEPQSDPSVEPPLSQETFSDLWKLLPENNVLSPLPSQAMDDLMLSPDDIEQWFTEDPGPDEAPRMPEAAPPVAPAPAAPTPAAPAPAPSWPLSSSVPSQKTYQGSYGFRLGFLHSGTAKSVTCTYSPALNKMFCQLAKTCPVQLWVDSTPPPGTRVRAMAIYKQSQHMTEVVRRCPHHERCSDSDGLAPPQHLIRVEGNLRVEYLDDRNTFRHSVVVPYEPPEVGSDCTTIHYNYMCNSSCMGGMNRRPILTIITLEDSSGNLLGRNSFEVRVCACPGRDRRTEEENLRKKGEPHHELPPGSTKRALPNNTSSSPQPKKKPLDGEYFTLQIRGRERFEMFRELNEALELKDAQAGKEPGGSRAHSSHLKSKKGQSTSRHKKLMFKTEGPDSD

[2] = target: T1, p63γ; assay: cell-based or functional assay

| transactivation function on the Bax promoter (Bax-luc reporter) [1] [fold] | transactivation function on the Bax promoter (Bax-luc reporter) [2] [fold] | Binder |
| --- | --- | --- |
| 20 | 7 | ASPP2 (1-1128) (other) MMPMFLTVYLSNNEQHFTEVPVTPETICRDVVDLCKEPGESDCHLAEVWCGSERPVADNERMFDVLQRFGSQRNEVRFFLRHERPPGRDIVSGPRSQDPSLKRNGVKVPGEYRRKENGVNSPRMDLTLAELQEMASRQQQQIEAQQQLLATKEQRLKFLKQQDQRQQQQVAEQEKLKRLKEIAENQEAKLKKVRALKGHVEQKRLSNGKLVEEIEQMNNLFQQKQRELVLAVSKVEELTRQLEMLKNGRIDSHHDNQSAVAELDRLYKELQLRNKLNQEQNAKLQQQRECLNKRNSEVAVMDKRVNELRDRLWKKKAALQQKENLPVSSDGNLPQQAASAPSRVAAVGPYIQSSTMPRMPSRPELLVKPALPDGSLVIQASEGPMKIQTLPNMRSGAASQTKGSKIHPVGPDWSPSNADLFPSQGSASVPQSTGNALDQVDDGEVPLREKEKKVRPFSMFDAVDQSNAPPSFGTLRKNQSSEDILRDAQVANKNVAKVPPPVPTKPKQINLPYFGQTNQPPSDIKPDGSSQQLSTVVPSMGTKPKPAGQQPRVLLSPSIPSVGQDQTLSPGSKQESPPAAAVRPFTPQPSKDTLLPPFRKPQTVAASSIYSMYTQQQAPGKNFQQAVQSALTKTHTRGPHFSSVYGKPVIAAAQNQQQHPENIYSNSQGKPGSPEPETEPVSSVQENHENERIPRPLSPTKLLPFLSNPYRNQSDADLEALRKKLSNAPRPLKKRSSITEPEGPNGPNIQKLLYQRTTIAAMETISVPSYPSKSASVTASSESPVEIQNPYLHVEPEKEVVSLVPESLSPEDVGNASTENSDMPAPSPGLDYEPEGVPDNSPNLQNNPEEPNPEAPHVLDVYLEEYPPYPPPPYPSGEPEGPGEDSVSMRPPEITGQVSLPPGKRTNLRKTGSERIAHGMRVKFNPLALLLDSSLEGEFDLVQRIIYEVDDPSLPNDEGITALHNAVCAGHTEIVKFLVQFGVNVNAADSDGWTPLHCAASCNNVQVCKFLVESGAAVFAMTYSDMQTAADKCEEMEEGYTQCSQFLYGVQEKMGIMNKGVIYALWDYEPQNDDELPMKEGDCMTIIHREDEDEIEWWWARLNDKEGYVPRNLLGLYPRIKPRQRSLA |
| ~6 | 4 | Apoptosis Stimulating Protein 1 (ASPP1) (other) MMPMILTVFLSNNEQILTEVPITPETTCRDVVEFCKEPGEGSCHLAEVWRGNERPIPFDHMMYEHLQIWGPRREEVKFFLRHEDSPTENSEQGGRQTQEQRTQRNVINVPGDKRTEYGVGNPRVELTLSELQDMAARQQQQIENQQQMLVAKEQRLHFLKQQERRQQQSISENEKLQKLKERVEAQENKLKKIRAMRGQVDYSKIMNGNLSAEIERFSAMFQEKKQEVQTAILRVDQLSQQLEDLKKGKLNGFQSYNGKLTGPAAVELKRLYQELQIRNQLNQEQNSKLQQQKELLNKRNMEVAMMDKRISELRERLYGKKIQLNRVNGTSSPQSPLSTSGRVAAVGPYIQVPSAGSFPVLGDPIKPQSLSIASNAAHGRSKSANDGNWPTLKQNSSSSVKPVQVAGADWKDPSVEGSVKQGTVSSQPVPFSALGPTEKPGIEIGKVPPPIPGVGKQLPPSYGTYPSPTPLGPGSTSSLERRKEGSLPRPSAGLPSRQRPTLLPATGSTPQPGSSQQIQQRISVPPSPTYPPAGPPAFPAGDSKPELPLTVAIRPFLADKGSRPQSPRKGPQTVNSSSIYSMYLQQATPPKNYQPAAHSALNKSVKAVYGKPVLPSGSTSPSPLPFLHGSLSTGTPQPQPPSESTEKEPEQDGPAAPADGSTVESLPRPLSPTKLTPIVHSPLRYQSDADLEALRRKLANAPRPLKKRSSITEPEGPGGPNIQKLLYQRFNTLAGGMEGTPFYQPSPSQDFMGTLADVDNGNTNANGNLEELPPAQPTAPLPAEPAPSSDANDNELPSPEPEELICPQTTHQTAEPAEDNNNNVATVPTTEQIPSPVAEAPSPGEEQVPPAPLPPASHPPATSTNKRTNLKKPNSERTGHGLRVRFNPLALLLDASLEGEFDLVQRIIYEVEDPSKPNDEGITPLHNAVCAGHHHIVKFLLDFGVNVNAADSDGWTPLHCAASCNSVHLCKQLVESGAAIFASTISDIETAADKCEEMEEGYIQCSQFLYGVQEKLGVMNKGVAYALWDYEAQNSDELSFHEGDALTILRRKDESETEWWWARLGDREGYVPKNLLGLYPRIKPRQRTLA |
